In patent US20230167164A1 (IMMUNOWAKE, published 2023):
Numbering of substitutions follows the chain as printed. Names and notes keep the numbering of the source.

B1: IL-12(E59A/F60A)/anti-PD-1(D100G) (other)
heavy 1: QVQLVESGGGVVQPGRSLRLDCKASGITFSNSGMHWVRQAPGKGLEWVAVIWYDGSKRYYADSVKGRFTISRDNSKNTLFLQMNSLRAEDTAVYYCATNGDYWGQGTLVTVSSASTKGPSVFPLAPSSKSTSGGTAALGCLVKDYFPEPVTVSWNSGALTSGVHTFPAVLQSSGLYSLSSVVTVPSSSLGTQTYICNVNHKPSNTKVDKKVEPKSCDKPGSGIWELKKDVYVVELDWYPDAPGEMVVLTCDTPEEDGITWTLDQSSEVLGSGKTLTIQVKAAGDAGQYTCHKGGEVLSHSLLLLHKKEDGIWSTDILKDQKEPKNKTFLRCEAKNYSGRFTCWWLTTISTDLTFSVKSSRGSSDPQGVTCGAATLSAERVRGDNKEYEYSVECQEDSACPAAEESLPIEVMVDAVHKLKYENYTSSFFIRDIIKPDPPKNLQLKPLKNSRQVEVSWEYPDTWSTPHSYFSLTFCVQVQGKSKREKKDRVFTDKTSATVICRKNASISVRAQDRYYSSSWSEWASVPCSGGGGSGGGGSGGGGSGGGGSGRNLPVATPDPGMFPCLHHSQNLLRAVSNMLQKARQTLEFYPCTSEEIDHEDITKDKTSTVEACLPLELTKNESCLNSRETSFITNGSCLASRKTSFMMALCLSSIYEDLKMYQVEFKTMNAKLLMDPKRQIFLDQNMLAVIDELMQALNFNSETVPQKSSLEEPDFYKTKIKLCILLHAFRIRAVTIDRVMSYLNASDKTHTCPPCPAPEDEGGPSVFLFPPKPKDTLMISRTPEVTCVVVDVSHEDPEVKFNWYVDGVEVHNAKTKPREEQYNSTYRVVSVLTVLHQDWLNGKEYKCKVSNKALPAPIEKTISKAKGQPREPQVYVYPPSREEMTKNQVSLTCLVKGFYPSDIAVEWESNGQPENNYKTTPPVLDEDGSFALVSKLTVDKSRWQQGNVFSCSVMHEALHNHYTQKSLSLSPGK
heavy 2: QVQLVESGGGVVQPGRSLRLDCKASGITFSNSGMHWVRQAPGKGLEWVAVIWYDGSKRYYADSVKGRFTISRDNSKNTLFLQMNSLRAEDTAVYYCATNGDYWGQGTLVTVSSASTKGPSVFPLAPSSKSTSGGTAALGCLVKDYFPEPVTVSWNSGALTSGVHTFPAVLQSSGLYSLSSVVTVPSSSLGTQTYICNVNHKPSNTKVDKKVEPKSCDKTHTCPPCPAPEKKGGPSVFLFPPKPKDTLMISRTPEVTCVVVDVSHEDPEVKFNWYVDGVEVHNAKTKPREEQYNSTYRVVSVLTVLHQDWLNGKEYKCKVSNKALPAPIEKTISKAKGQPREPQVYVLPPSREEMTKNQVSLLCLVKGFYPSDIAVEWESNGQPENRYMTWPPVLDSDGSFFLYSKLTVDKSRWQQGNVFSCSVMHEALHNHYTQKSLSLSPGK
light: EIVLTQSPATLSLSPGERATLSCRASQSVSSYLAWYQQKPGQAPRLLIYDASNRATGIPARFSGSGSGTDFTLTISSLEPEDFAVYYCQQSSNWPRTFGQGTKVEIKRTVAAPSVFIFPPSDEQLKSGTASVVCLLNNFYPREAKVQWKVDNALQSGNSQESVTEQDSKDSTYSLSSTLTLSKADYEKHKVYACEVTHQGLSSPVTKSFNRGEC
B2: IL-12(E59A/F60A)/anti-PD-1(D100R) (other)
heavy 1: B1 heavy 1 with G100R
heavy 2: B1 heavy 2 with G100R
light: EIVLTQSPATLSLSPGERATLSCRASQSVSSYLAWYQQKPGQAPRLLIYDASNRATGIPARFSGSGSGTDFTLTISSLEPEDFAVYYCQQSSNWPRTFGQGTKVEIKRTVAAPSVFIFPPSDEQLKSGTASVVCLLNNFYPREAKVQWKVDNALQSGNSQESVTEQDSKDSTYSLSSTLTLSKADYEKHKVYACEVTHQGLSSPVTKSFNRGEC
B3: IL-12(E59A/F60A)/anti-PD-1(D100N) (other)
heavy 1: B1 heavy 1 with G100N
heavy 2: B1 heavy 2 with G100N
light: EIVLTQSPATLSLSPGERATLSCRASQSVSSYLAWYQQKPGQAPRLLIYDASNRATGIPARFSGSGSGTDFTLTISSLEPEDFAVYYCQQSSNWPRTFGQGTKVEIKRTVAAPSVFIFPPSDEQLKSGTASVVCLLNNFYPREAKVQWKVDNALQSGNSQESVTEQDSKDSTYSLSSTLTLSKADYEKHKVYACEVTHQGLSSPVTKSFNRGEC
B4: Fab-IL-12(WT)-Fc-CD8 Ab (other)
heavy 1: EVQLQQSGPELVKPGASVKMSCKASGYTFTDYYMKWVKQSHGKSLEWIGHINPNNDDTFYTQKFKGRATLTVDKSSSTAYMQLNSLTSEDSAVYYCVRDDYDGGWFAYWGQGTLVTVSSASTKGPSVFPLAPSSKSTSGGTAALGCLVKDYFPEPVTVSWNSGALTSGVHTFPAVLQSSGLYSLSSVVTVPSSSLGTQTYICNVNHKPSNTKVDKKVEPKSCDKPGSGIWELKKDVYVVELDWYPDAPGEMVVLTCDTPEEDGITWTLDQSSEVLGSGKTLTIQVKEFGDAGQYTCHKGGEVLSHSLLLLHKKEDGIWSTDILKDQKEPKNKTFLRCEAKNYSGRFTCWWLTTISTDLTFSVKSSRGSSDPQGVTCGAATLSAERVRGDNKEYEYSVECQEDSACPAAEESLPIEVMVDAVHKLKYENYTSSFFIRDIIKPDPPKNLQLKPLKNSRQVEVSWEYPDTWSTPHSYFSLTFCVQVQGKSKREKKDRVFTDKTSATVICRKNASISVRAQDRYYSSSWSEWASVPCSGGGGSGGGGSGGGGSGGGGSGRNLPVATPDPGMFPCLHHSQNLLRAVSNMLQKARQTLEFYPCTSEEIDHEDITKDKTSTVEACLPLELTKNESCLNSRETSFITNGSCLASRKTSFMMALCLSSIYEDLKMYQVEFKTMNAKLLMDPKRQIFLDQNMLAVIDELMQALNFNSETVPQKSSLEEPDFYKTKIKLCILLHAFRIRAVTIDRVMSYLNASDKTHTCPPCPAPEDEGGPSVFLFPPKPKDTLMISRTPEVTCVVVDVSHEDPEVKFNWYVDGVEVHNAKTKPREEQYNSTYRVVSVLTVLHQDWLNGKEYKCKVSNKALPAPIEKTISKAKGQPREPQVYVYPPSREEMTKNQVSLTCLVKGFYPSDIAVEWESNGQPENNYKTTPPVLDEDGSFALVSKLTVDKSRWQQGNVFSCSVMHEALHNHYTQKSLSLSPGK
heavy 2: EVQLQQSGPELVKPGASVKMSCKASGYTFTDYYMKWVKQSHGKSLEWIGHINPNNDDTFYTQKFKGRATLTVDKSSSTAYMQLNSLTSEDSAVYYCVRDDYDGGWFAYWGQGTLVTVSSASTKGPSVFPLAPSSKSTSGGTAALGCLVKDYFPEPVTVSWNSGALTSGVHTFPAVLQSSGLYSLSSVVTVPSSSLGTQTYICNVNHKPSNTKVDKKVEPKSCDKTHTCPPCPAPEKKGGPSVFLFPPKPKDTLMISRTPEVTCVVVDVSHEDPEVKFNWYVDGVEVHNAKTKPREEQYNSTYRVVSVLTVLHQDWLNGKEYKCKVSNKALPAPIEKTISKAKGQPREPQVYVLPPSREEMTKNQVSLLCLVKGFYPSDIAVEWESNGQPENRYMTWPPVLDSDGSFFLYSKLTVDKSRWQQGNVFSCSVMHEALHNHYTQKSLSLSPGK
light: DIQMTQTTSSLSASLGDRVTISCRASQDINNYLNWYQQKSDGTIKLLIYYTSRSYSGVPSRFSGSGSGTDYSLTISNRRQEDIATYFCQQGKTLPWTFGGGTKLEIKRTVAAPSVFIFPPSDEQLKSGTASVVCLLNNFYPREAKVQWKVDNALQSGNSQESVTEQDSKDSTYSLSSTLTLSKADYEKHKVYACEVTHQGLSSPVTKSFNRGEC
B5: Fab-IL-12(E59A)-Fc-CD8 Ab (other)
heavy 1: B4 heavy 1 with E287A
heavy 2: B4 heavy 2
light: B4 light
B6: Fab-IL-12(E59A/F60A)-Fc-CD8 Ab (other)
heavy 1: B4 heavy 1 with E287A, F288A
heavy 2: B4 heavy 2
light: B4 light
B7: Fab-IL-12(F60A)-Fc-CD8 Ab (other)
heavy 1: B4 heavy 1 with F288A
heavy 2: B4 heavy 2
light: B4 light
B8: PD-L2(mut3)-Fc (Fc fusion)
chain 1: LFTVTVPKELYIIEHGSNVTLECNFDTGSHVNLGAITASLLKVENDTSPHRERATLLEEQLPLGKASFHIPQVQVRDEGQYQCIIIYGVAWDYKYLTLKVKASYRKINTHILKVPETDEVELTCQATGYPLAEVSWPNVSVPANTSHSRTPEGLYQVTSVLRLKPPPGRNFSCVFWNTHVRELTLASIDLQSQMEPRTHPTDKTHTCPPCPAPEDEGGPSVFLFPPKPKDTLMISRTPEVTCVVVDVSHEDPEVKFNWYVDGVEVHNAKTKPREEQYNSTYRVVSVLTVLHQDWLNGKEYKCKVSNKALPAPIEKTISKAKGQPREPQVYVYPPSREEMTKNQVSLTCLVKGFYPSDIAVEWESNGQPENNYKTTPPVLDEDGSFALVSKLTVDKSRWQQGNVFSCSVMHEALHNHYTQKSLSLSPGK
chain 2: B8 chain 1 with D215K, E216K, Y332L, T347L, N371R, K373M, T375W, E381S, A386F, V388Y
notes: also called Q60L
B9: PD-L2(mut4)-Fc (Fc fusion)
chain 1: B8 chain 1 with T37V, S39V
chain 2: LFTVTVPKELYIIEHGSNVTLECNFDTGSHVNLGAIVAVLLKVENDTSPHRERATLLEEQLPLGKASFHIPQVQVRDEGQYQCIIIYGVAWDYKYLTLKVKASYRKINTHILKVPETDEVELTCQATGYPLAEVSWPNVSVPANTSHSRTPEGLYQVTSVLRLKPPPGRNFSCVFWNTHVRELTLASIDLQSQMEPRTHPTDKTHTCPPCPAPEKKGGPSVFLFPPKPKDTLMISRTPEVTCVVVDVSHEDPEVKFNWYVDGVEVHNAKTKPREEQYNSTYRVVSVLTVLHQDWLNGKEYKCKVSNKALPAPIEKTISKAKGQPREPQVYVLPPSREEMTKNQVSLLCLVKGFYPSDIAVEWESNGQPENRYMTWPPVLDSDGSFFLYSKLTVDKSRWQQGNVFSCSVMHEALHNHYTQKSLSLSPGK
notes: also called PD-L2(T56V/S58V/Q60L)

Target: T1, human IL-12 receptor complex (human, UniProt P42701 24-662; Q99665 24-862)
Assay: cell-based or functional assay

T1 sequence (Q99665 24-862, chain 2 of 2, other chains not shown): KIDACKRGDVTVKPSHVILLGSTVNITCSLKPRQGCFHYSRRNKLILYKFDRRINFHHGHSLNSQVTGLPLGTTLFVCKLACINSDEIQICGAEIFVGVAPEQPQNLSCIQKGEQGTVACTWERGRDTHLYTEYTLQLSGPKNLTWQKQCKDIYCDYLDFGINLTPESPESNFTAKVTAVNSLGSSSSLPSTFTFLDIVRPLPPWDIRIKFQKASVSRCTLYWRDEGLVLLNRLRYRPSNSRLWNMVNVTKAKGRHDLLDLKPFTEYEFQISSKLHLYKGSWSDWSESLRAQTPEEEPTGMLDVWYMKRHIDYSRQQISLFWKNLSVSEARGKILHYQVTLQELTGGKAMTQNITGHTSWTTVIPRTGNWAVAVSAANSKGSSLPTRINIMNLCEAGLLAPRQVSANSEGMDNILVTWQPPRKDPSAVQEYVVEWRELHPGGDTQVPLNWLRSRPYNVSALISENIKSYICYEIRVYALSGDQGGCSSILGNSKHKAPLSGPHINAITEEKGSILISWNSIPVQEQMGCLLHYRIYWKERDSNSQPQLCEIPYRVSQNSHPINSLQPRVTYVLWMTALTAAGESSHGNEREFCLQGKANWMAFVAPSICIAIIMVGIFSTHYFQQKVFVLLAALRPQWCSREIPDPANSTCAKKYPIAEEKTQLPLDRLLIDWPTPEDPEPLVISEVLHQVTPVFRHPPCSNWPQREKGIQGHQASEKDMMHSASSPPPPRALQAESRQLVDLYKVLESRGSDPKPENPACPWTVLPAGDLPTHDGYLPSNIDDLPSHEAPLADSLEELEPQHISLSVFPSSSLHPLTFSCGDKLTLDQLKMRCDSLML

B1 and B2 cannot be ordered by “IL-12 signal transduction, % of rIL-12, HEK-IL-12 cells” value: < 0.2% for the first, < 0.2% for the second.

In the case of B3, the “IL-12 signal transduction, % of rIL-12, HEK-IL-12 cells” value is reported as < 0.2%.

Target: human PD-1 overexpressed on HEK-Blue reporter cells (human, UniProt Q15116 25-288)
Assay: cell-based or functional assay

Sequence of human PD-1 overexpressed on HEK-Blue reporter cells (Q15116 25-288): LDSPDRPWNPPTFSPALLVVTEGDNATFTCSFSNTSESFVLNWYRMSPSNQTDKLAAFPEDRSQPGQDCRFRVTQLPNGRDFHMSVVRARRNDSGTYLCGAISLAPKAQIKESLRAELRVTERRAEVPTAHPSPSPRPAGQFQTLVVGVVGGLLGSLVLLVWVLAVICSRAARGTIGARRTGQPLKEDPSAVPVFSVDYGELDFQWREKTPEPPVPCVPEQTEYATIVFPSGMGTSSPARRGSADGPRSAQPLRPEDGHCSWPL

Going from B1 to B2, the “IL-12 signal transduction, % of rIL-12, HEK-IL-12-PD-1 (high)” value falls from 33% to 10%.

For B3, the “IL-12 signal transduction, % of rIL-12, HEK-IL-12-PD-1 (high)” value was 38%.

Going from B1 to B2, the “IL-12 signal transduction, % of rIL-12, HEK-IL-12-PD-1 (low)” value falls from 17% to 3%.

With B3 the “IL-12 signal transduction, % of rIL-12, HEK-IL-12-PD-1 (low)” value was 33%.

Target: T2, human PD-1 (human, UniProt Q15116 25-167, limits assumed)
T2 construct: nivolumab is called an anti-human PD-1 antibody; also called hPD-1
Assay: Kd to PD-1 as printed for the construct in Table 19; method not told there; same value as for the parental anti-PD-1 antibody

T2 sequence (Q15116 25-167 limits assumed): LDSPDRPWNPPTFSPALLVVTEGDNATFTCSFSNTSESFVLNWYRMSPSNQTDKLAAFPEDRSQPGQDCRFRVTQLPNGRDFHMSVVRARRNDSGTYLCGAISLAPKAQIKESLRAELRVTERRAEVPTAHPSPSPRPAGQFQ

Compared with B1, B2 is 7-fold higher in Kd: 130 nM for the first, 910 nM for the second. The first binds more tightly here.

Binder B3 has a Kd of 25 nM.

Target: T2, human PD-1
Assay: Kd column of Table 18; same value as the antibody in Table 17

First: B1
Second: B2
The Kd of the first is 7-fold lower: 130 nM for the first, 910 nM for the second.

With B3 the Kd was 25 nM.

Target: T3, human CD4 on cells (human, UniProt P01730 26-458)
T3 construct: whole, on cells; also called CD4+ T cells; HEK-CD4-IFN-γ cells
Assay: FACS on CD4+ T cells

B4: no binding.
B5: no binding.
B6: no binding.
B7: no binding.

Target: T2, human PD-1
Assay: PD-L2-Fc format, calibrated on PD-L2(wt)-Fc binding affinity

Compared with B8, B9 is 1.9-fold lower in Kd: 490 nM for the first, 255 nM for the second. The second binds more tightly here.

Target: T4, mouse PD-1 (mouse, UniProt Q02242 25-167, limits assumed)
T4 construct: also called mPD-1
T4 sequence (looked up): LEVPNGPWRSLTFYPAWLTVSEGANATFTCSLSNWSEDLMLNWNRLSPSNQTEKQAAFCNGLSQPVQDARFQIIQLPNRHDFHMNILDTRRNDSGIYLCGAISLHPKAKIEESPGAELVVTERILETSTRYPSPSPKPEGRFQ
Assay: as above

B8 and B9 are within 1.5-fold of each other in Kd: 320 nM for the first, 220 nM for the second.

Target: T1, human IL-12 receptor complex
Assay: cell-based or functional assay
Remark: another data set of the same source

Compared with B4, B5 is lower in “IFN-γ release, % of rIL-12, activated CD4+ T cells” value: 21% for the first, 2.1% for the second.

First: B6
Second: B7
The “IFN-γ release, % of rIL-12, activated CD4+ T cells” value of the first is lower: 0% for the first, 1.2% for the second.
